Here are results for 2 molecules from publication PMC4499801, “Resolving single membrane fusion events on planar pore-spanning membranes” (Scientific Reports, 2015).

Primed or numbered codes have the meaning given here. Where no end group is shown, it is not given here. PEG12′ = PEG spacer of 12 units between cholesterol and peptide

Test [1] addresses T1, syntaxin 1A (residues 183-288) (Rattus norvegicus, UniProt P32851 183-288).
T1 construct: syntaxin 1A, Rattus norvegicus, residues 183-288; source: E. coli BL21(DE3), pET28a, purified (Ni-NTA, MonoQ, 1% CHAPS); also reconstituted alone into pore-spanning membranes
As to the kind of experiment: assembly of the complex from purified proteins and purification by ion exchange chromatography (MonoQ); three purified proteins mixed with an excess of SNAP25a (1:1:1.5) in 1% CHAPS, over night at 7 °C, complex purified by MonoQ. As to conditions: both partners purified.

Test [2] has as its target T2, cholesterol-PEG12-(EIAALEK)4 (cholesterol-PEG12 anchor, as printed: cholesterol-PEG12-(EIAALEK)4).
T2 construct: printed as (EIAALEK)4, written out four times; coiled coil forming lipidated peptide; also called SNARE fusion mimetic; lipopeptide; source: reconstituted into pore-spanning membranes
T2 peptide: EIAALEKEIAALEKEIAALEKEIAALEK
As to the kind of experiment: single vesicle docking on planar pore-spanning membranes (two color confocal fluorescence microscopy); target reconstituted in pore-spanning membranes (DOPC/POPE/POPS/cholesterol 5:2:1:2, 1,000:1, Oregon Green DHPE), binder in Texas Red DHPE doped LUVs (1,000:1, 325 nm); buffer A (20 mM HEPES, 100 mM KCl, 1 mM DTT, pH 7.4); time series of 300 s. As to conditions: both partners purified.

T1 sequence (P32851 183-288): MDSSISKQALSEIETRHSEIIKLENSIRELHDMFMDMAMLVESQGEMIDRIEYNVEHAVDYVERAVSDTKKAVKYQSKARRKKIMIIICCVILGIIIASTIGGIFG

B1: synaptobrevin 2 (residues 49-96, soluble C-terminal fragment) (domain or fragment, Rattus norvegicus, UniProt P63045 49-96, looked up)
chain: NVDKVLERDQKLSELDDRADALQAGASQFETSAAKLKRKYWWKNLKMM
notes: synaptobrevin 2, Rattus norvegicus, residues 49-96; also called C-terminal soluble fragment of synaptobrevin 2 (residues 49-96); soluble fragment of synaptobrevin 2; source: E. coli BL21(DE3), pET28a, purified (Ni-NTA, MonoS)
For B1, in test [1], the binding result is recorded as “binds”.

B2: cholesterol-PEG12-(KIAALKE)4 (peptide)
peptide: {cholesterol-PEG12′}-KIAALKEKIAALKEKIAALKEKIAALKE
notes: printed as (KIAALKE)4, written out four times; coiled coil forming lipidated peptide; also called SNARE fusion mimetic; lipopeptide; source: reconstituted into large unilamellar vesicles
For B2, in test [2], the binding result is given as “binds”.
